# Data: patent publication US20240352111A1 (Regeneron, published 2024)
# T1: hArtemin-MMH (human)
# T1 chain: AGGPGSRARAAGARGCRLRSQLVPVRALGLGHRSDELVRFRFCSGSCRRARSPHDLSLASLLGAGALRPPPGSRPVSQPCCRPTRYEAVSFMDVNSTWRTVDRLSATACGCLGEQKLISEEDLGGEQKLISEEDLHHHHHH
# T2: MfArtemin-MMH (cynomolgous monkey (Macaca fascicularis))
# T2 chain: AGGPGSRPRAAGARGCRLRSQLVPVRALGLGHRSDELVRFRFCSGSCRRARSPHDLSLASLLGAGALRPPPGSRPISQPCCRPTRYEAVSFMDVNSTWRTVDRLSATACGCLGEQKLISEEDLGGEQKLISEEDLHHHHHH
# T3: mArtemin-MMH (mouse)
# T3 chain: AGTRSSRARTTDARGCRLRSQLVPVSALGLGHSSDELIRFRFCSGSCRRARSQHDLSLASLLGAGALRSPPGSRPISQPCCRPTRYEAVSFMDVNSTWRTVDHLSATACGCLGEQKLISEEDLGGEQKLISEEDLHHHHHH
# How the values were obtained:
# hArtemin-MMH [1] = molecular target: T1, hArtemin-MMH; experiment: cell-based or functional assay
# MfArtemin-MMH [2] = molecular target: T2, MfArtemin-MMH; experiment: cell-based or functional assay
# mArtemin-MMH [3] = molecular target: T3, mArtemin-MMH; experiment: cell-based or functional assay
# hArtemin-MMH [4] = molecular target: T1, hArtemin-MMH; experiment: BLI (Octet HTX), mAb captured on AHC tips, artemin at 15 nM, 25 C
# Procedure: (§1) The entire experiment was performed at 25° C. in 10 mM HEPES, 150 mM NaCl, 3 mM EDTA, 0.02% NaN3 and 0.05% v/v Surfactant Tween-20, 1 mg/mL BSA, pH7.4 (HBS-EBT) buffer with the plate shaking at a speed of 1000 rpm. Different Artemin mAbs were first captured onto anti-human antibody (AHC) coated Octet biosensor tips (Fortebio Inc, #18-5064) by submerging the biosensor tips for 40 seconds in wells containing 2 μg/mL of Artemin mAb. […] All the Artemin and Artemin mAb samples were prepared in HBS-EBT buffer. The real-time binding response was monitored during the entire course of the experiment and the binding response at the end of every step was recorded.
# MfArtemin-MMH [5] = molecular target: T2, MfArtemin-MMH; experiment: as above
# Procedure: as §1
# mArtemin-MMH [6] = molecular target: T3, mArtemin-MMH; experiment: as above
# Procedure: as §1
# hArtemin-MMH [7] = molecular target: T1, hArtemin-MMH; experiment: BLI (Octet HTX), mAb captured on AHC tips, artemin at 30 nM, 25 C
# Procedure: as §1
# MfArtemin-MMH [8] = molecular target: T2, MfArtemin-MMH; experiment: as above
# Procedure: as §1
# mArtemin-MMH [9] = molecular target: T3, mArtemin-MMH; experiment: as above
# Procedure: as §1
# hArtemin-MMH [10] = molecular target: T1, hArtemin-MMH; experiment: SPR Biacore T200, hArtemin-MMH captured by anti-myc mAb, mAb injected, 25 C
# Procedure: The equilibrium dissociation constant (KD) for Artemin binding to each of Artemin monoclonal antibodies (mAbs) H4H33331P, H4H33335P, H4H33336P, and H4H33349P was determined using a real-time surface plasmon resonance Biacore T200 biosensor. All binding studies were performed in 10 mM HEPES, 150 mM NaCl, 3 mM EDTA, and 0.05% v/v Surfactant Tween-20, pH 7.4 (HBS-ET) running buffer at 25° C. The Biacore CM4 sensor chip surface was first derivatized by amine coupling with anti-myc mAb to capture hArtemin-MMH, MfArtemin-MMH, or mArtemin-MMH. Different concentrations of Artemin mAbs (60-2.2 nM, 3-fold serial dilution) prepared in […] running buffer were injected over the Artemin-captured surfaces for 3 min at a flow rate of 50 μL/min and their dissociation in HBS-ET running buffer was monitored for 5 minutes. At the end of each cycle, the Artemin-captured surfaces were regenerated using a 6 sec injection of 20 mM phosphoric acid.
# The association rate (kₐ) and dissociation rate (kd) were determined by fitting the real-time binding sensorgrams to a 1:1 binding model with mass transport limitation using Scrubber 2.0c curve-fitting software. Binding dissociation equilibrium constant (KD) and dissociative half-life (t½) were calculated from the kinetic rates as: KD (M)=kd/kₐ, and t_{1/2} (min)=[In2/(60*kd)].
# mArtemin-MMH [11] = molecular target: T3, mArtemin-MMH; experiment: blocking ELISA, antibody blocks 150 pM msARTN.mmh binding to plate-coated hGFRa3.hFc; * below lower limit of assay (3.75E-11 M)
# Procedure: (§2) Experiments were carried out using the following procedures. Plates were coated with hGFRa3.hFc at 2 μg/ml in PBS on a 96-well microtiter plate at 4° C. overnight for all three assays. […] In other microtiter plates, a constant amount of either 75 pM hARTN.mmh, 400 pM mfARTN.mmh, or 150 pM msARTN.mmh were separately bound with anti-ARTN antibodies and an irrelevant IgG4 antibody control at a serial dilution series from 0.0017 nM to 100 nM in PBS+0.5% BSA. After a one-hour incubation, the mixture solutions were transferred to microtiter plates coated with hGFRa3.hFc. After one hour of incubation at RT, the wells were washed with PBST, and plate-bound ARTN was detected with an anti-penta-His antibody conjugated with horseradish peroxidase (HRP) (Qiagen). The plates were then developed using TMB substrate solution (BD Biosciences, #555214) according to manufacturer's recommendation and absorbance at 450 nm was measured on a Victor X5 plate reader.
# (§3) Binding data were analyzed using a sigmoidal dose-response model within Prism™ software (GraphPad). […] If the calculated IC50 value was below the LLOA, less than LLOA was reported. Percent blocking at 100 nM antibody was calculated based on the background-corrected binding signal observed at the highest antibody concentration tested using the formula listed below and reported for all tested antibodies: […]
# MfArtemin-MMH [12] = molecular target: T2, MfArtemin-MMH; experiment: blocking ELISA, antibody blocks 400 pM mfARTN.mmh binding to plate-coated hGFRa3.hFc; * below lower limit of assay (1.00E-10 M)
# Procedure: as §2, §3
"Max inhibition (%), SRE-luciferase reporter, 500 pM hArtemin (hArtemin-MMH [1]) [%]","Max inhibition (%), SRE-luciferase reporter, 3 nM mfArtemin (MfArtemin-MMH [2]) [%]","Max inhibition (%), SRE-luciferase reporter, 1 nM mArtemin (mArtemin-MMH [3]) [%]",Artemin Binding Response (nm) (hArtemin-MMH [4]),Artemin Binding Response (nm) (MfArtemin-MMH [5]),Artemin Binding Response (nm) (mArtemin-MMH [6]),Artemin Binding Response (nm) (hArtemin-MMH [7]),Artemin Binding Response (nm) (MfArtemin-MMH [8]),Artemin Binding Response (nm) (mArtemin-MMH [9]),60 nM Artemin mAb Bound (RU) (hArtemin-MMH [10]),Kd (hArtemin-MMH [10]) [nM],koff (hArtemin-MMH [10]) [s⁻¹],kon (hArtemin-MMH [10]) [M⁻¹ s⁻¹],t½ (hArtemin-MMH [10]) [min],IC50 (mArtemin-MMH [11]) [pM],IC50 (MfArtemin-MMH [12]) [nM],Binder
100,100,100,0.11,0.09,0.11,0.11,0.12,0.11,18,0.119,5.9e-05,497000,196,7.65,0.0302,"H4H33349P (antibody, human IgG4 S228P, kappa, V domains shown, Fully human antibody; also called Artemin mAb; anti-ARTN antibody) VH: QVQLVESGGGVVQPGRSLRLSCEASGFTFSDYDLHWVRQAPGKGLEWVAFISNDGSNEYYPKSVKGRFSISRDNSKNTLYLQMNSLRAEDTAVYHCTKERDYYYDSSGSLDYWGQGTLVTVSS VL: DIQMTQSPSSLSASVGDRVTITCRASQTINNYLNWYQQKPGKAPKLLIYTTSGLQSGVPSRFSGRGSGTDFTLAISSLQPEDFATYYCQQSYHSPFTFGPGTKVDIKR"
100,100,100,0.11,0.03,0.08,0.11,0.09,0.1,7,2.91,0.000366,126000,32,< 37.5,–,"H4H33331P (antibody, human IgG4 S228P, kappa, V domains shown, Fully human antibody (human variable and constant domains) from a VELOCIMMUNE mouse; also called Artemin mAb; anti-ARTN antibody) VH: EVQLVESGGDLVQPGGSLKLSCAASGFTFSGSAMHWVRQASGKGLEWVGRIRNKVHRYATEYGASVKGRFTISRDDSKNTAYLQMNSLKIEDTAVYYCVVVVPGSIEAFDIWGQGTMVTVSS VL: DIQMTQSPSSLSASVGDRVTITCRASQSISTYLNWYQQKPGKAPNLLIYAASTLESGVPSRFSGSGSGTDFTLTISSLQPEDFEIYYCQQSYNIPWTFGQGTKVEIKR"
100,100,100,0.09,0.03,0.01,0.12,0.06,0.03,15,0.15,3.75e-05,249000,308,–,0.075,"H4H33336P (antibody, human IgG4 S228P, kappa, V domains shown, Fully human antibody; also called Artemin mAb; anti-ARTN antibody) VH: QVQLVESGGGVVQPGRSLRLSCVASGFILSHYGMHWVRQAPGKGLEWVAVIWFDGTNKYYADSVKGRFTVSRDNSKNTLYMQMNSLRAEDTAVYYCARDPPPARRGNYNGMDVWGQGTTVTVSS VL: DIQMTQSPSSLSASVGDRVTITCRASQDIRNDLGWYQQKPGKAPKRLIFGASSLQSGVPLRFSGSGSGTEFTLTINNLQPEDFATFYCLQDNSYPWTFGQGTKVEIKR"
